According to patent US20230125550A1 (ARCELLX, published 2023):
Residue numbers refer to the chain shown, from its start.

T1: recombinant human CD123-Fc (human, UniProt P26951 19-305)
T1 construct: not shown: Fc part of CD123-Fc
T1 sequence: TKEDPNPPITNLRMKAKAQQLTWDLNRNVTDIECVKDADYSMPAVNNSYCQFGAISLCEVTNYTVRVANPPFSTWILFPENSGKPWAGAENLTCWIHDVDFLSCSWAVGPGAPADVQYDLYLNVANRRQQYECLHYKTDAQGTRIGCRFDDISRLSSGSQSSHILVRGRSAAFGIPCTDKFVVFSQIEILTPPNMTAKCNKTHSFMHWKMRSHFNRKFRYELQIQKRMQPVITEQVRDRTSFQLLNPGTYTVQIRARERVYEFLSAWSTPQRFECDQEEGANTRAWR

B1: SEQ ID NO: 393 (designed binder)
chain: MGSWWEFEERLWAIDYRLHALGGSEAELAAFEKEIAAFESELQAYKGKGNPEVEMLRSWAAEIRALLQAYRHN
notes: D domain, on phage
B2: SEQ ID NO: 361 (designed binder)
chain: MGSWDEFEQRLIAIEERLFALGGSEAELAAFEKEIAAFESELQAYKGKGNPEVEWLREEAAVIRKYLQAYRHN
notes: D domain, on phage
B3: SEQ ID NO: 398 (designed binder)
chain: B2 chain with D5S, Q9H, I12E, E16S, W55D, E58S, V62W, K65E, Y66Q
notes: D domain, on phage
B4: SEQ ID NO: 335 (designed binder)
chain: MGSWDEFYYRLEAIEMRLGALGGSEAELAAFEKEIAAFESELQAYKGKGNPEVEELRHYAAQIRHMLQAYRHN
notes: D domain, on phage
B5: SEQ ID NO: 336 (designed binder)
chain: B4 chain with D5E, Y9D, E15Y, M16N, E55V, H58E, Q62D, H65E
notes: D domain, on phage
B6: SEQ ID NO: 362 (designed binder)
chain: MGSWVEFDQRLGAIWDRLVALGGSEAELAAFEKEIAAFESELQAYKGKGNPEVEHLRQGAAVIRDDLQAYRHN
notes: D domain, on phage
B7: SEQ ID NO: 389 (designed binder)
chain: MGSWWEFIWRLEAIEQRLWALGGSEAELAAFEKEIAAFESELQAYKGKGNPEVEVLRSRAADIRTDLQAYRHN
notes: D domain, on phage
B8: SEQ ID NO: 387 (designed binder)
chain: MGSWLEFMWRLDAIDERLWALGGSEAELAAFEKEIAAFESELQAYKGKGNPEVELLREMAAAIRDDLQAYRHN
notes: D domain, on phage
B9: SEQ ID NO: 373 (designed binder)
chain: MGSWFEFNYRLGAIEDRLWALGGSEAELAAFEKEIAAFESELQAYKGKGNPEVEMLRQIAAEIREFLQAYRHN
notes: D domain, on phage
B10: SEQ ID NO: 413 (designed binder)
chain: MGSWSEFHVRLDAIYARLDALGGSEAELAAFEKEIAAFESELQAYKGKGNPEVERLREWAANIRRELQAYRHN
notes: D domain, on phage
B11: SEQ ID NO: 416 (designed binder)
chain: B10 chain with S5V, H8N, V9I, A16E, D19Y, R55K, E58H, N62S
notes: D domain, on phage
B12: SEQ ID NO: 414 (designed binder)
chain: B10 chain with S5V, V9L, A16G, D19M, R55N, E58V, R65N
notes: D domain, on phage
B13: SEQ ID NO: 427 (designed binder)
chain: B10 chain with S5I, H8E, A16N, D19A, E58R, W59Y, R65H
notes: D domain, on phage
B14: SEQ ID NO: 424 (designed binder)
chain: B10 chain with S5V, H8Y, V9I, A16V, D19M, R55K, E58S, W59Y, R65Q
notes: D domain, on phage
B15: SEQ ID NO: 430 (designed binder)
chain: B10 chain with S5Y, H8D, V9Y, A16D, D19A, E58K, R65E
notes: D domain, on phage
B16: SEQ ID NO: 422 (designed binder)
chain: B10 chain with S5T, H8A, V9W, A16D, D19L, R55W, E58H, W59V
notes: D domain, on phage
B17: SEQ ID NO: 420 (designed binder)
chain: MGSWVEFNWRLDAIYDRLVALGGSEAELAAFEKEIAAFESELQAYKGKGNPEVEWLRVSAAKIRGELQAYRHN
notes: D domain, on phage
B18: SEQ ID NO: 417 (designed binder)
chain: B10 chain with S5H, H8G, A16D, D19M, R55F, E58Q, W59A, R65S
notes: D domain, on phage
B19: SEQ ID NO: 423 (designed binder)
chain: B17 chain with N8S, W9I, D16T, W55M, V58K, S59G, K62N, G65K
notes: D domain, on phage
B20: SEQ ID NO: 419 (designed binder)
chain: B10 chain with S5T, H8N, V9L, A16G, D19S, R55F, E58A, W59A, R65V
notes: D domain, on phage
B21: SEQ ID NO: 428 (designed binder)
chain: B10 chain with S5F, H8Y, V9D, A16M, D19I, R55V, E58R, W59Y, R65A
notes: D domain, on phage
B22: SEQ ID NO: 425 (designed binder)
chain: B10 chain with S5Y, H8S, V9M, A16D, D19M, R55Q, E58G, W59Y, R65N
notes: D domain, on phage
B23: SEQ ID NO: 415 (designed binder)
chain: B10 chain with S5V, H8E, V9M, Y15V, A16G, D19Y, R55K, E58R, R65S
notes: D domain, on phage
B24: SEQ ID NO: 421 (designed binder)
chain: B17 chain with V5N, N8A, D16S, V19A, S59A, K62N, G65Y
notes: D domain, on phage
B25: SEQ ID NO: 418 (designed binder)
chain: B17 chain with V5T, W9L, V19M, V58A, K62A, G65V
notes: D domain, on phage
B26: SEQ ID NO: 431 (designed binder)
chain: B10 chain with H8Y, V9L, A16D, R55W, E58K, W59T, R65E
notes: D domain, on phage
B27: SEQ ID NO: 429 (designed binder)
chain: B10 chain with S5F, H8Y, V9M, A16D, D19T, E58T, W59F, R65K
notes: D domain, on phage
B28: SEQ ID NO: 426 (designed binder)
chain: B17 chain with N8I, W9Y, V19E, W55V, V58R, S59Y, K62N, G65N
notes: D domain, on phage
B29: SEQ ID NO: 333 (designed binder)
chain: MGSWEEFAQRLYAIEWRLYALGGSEAELAAFEKEIAAFESELQAYKGKGNPEVEVLRYVAAQIRYHLQAYRHN
notes: D domain, on phage
B30: SEQ ID NO: 352 (designed binder)
chain: B2 chain with E8G, Q9R, I12Y, E16W, F19Y, W55K, E59I, K65S, Y66N
notes: D domain, on phage
B31: SEQ ID NO: 385 (designed binder)
chain: MGSWEEFWERLDAIDTRLWALGGSEAELAAFEKEIAAFESELQAYKGKGNPEVEVLRNDAADIREPLQAYRHN
notes: D domain, on phage
B32: SEQ ID NO: 386 (designed binder)
chain: B31 chain with E5M, D12E, T16M, V55Y, N58D, D62V, E65D, P66D
notes: D domain, on phage
B33: SEQ ID NO: 388 (designed binder)
chain: B8 chain with L5T, M8Y, W9N, E16Q, L55M, M59Y, A62D, D65T
notes: D domain, on phage
B34: SEQ ID NO: 327 (designed binder)
chain: MGSWTEFVWRLEAIWDRLDALGGSEAELAAFEKEIAAFESELQAYKGKGNPEVEVLREDAAVIRHFLQAYRHN
notes: D domain, on phage
B35: SEQ ID NO: 334 (designed binder)
chain: MGSWDEFAWRLDVIFARLGALGGSEAELAAFEKEIAAFESELQAYKGKGNPEVEELRKNAAQIRDGLQAYRHN
notes: D domain, on phage
B36: SEQ ID NO: 375 (designed binder)
chain: MGSWYEFSNRLDAIGERLWALGGSEAELAAFEKEIAAFESELQAYKGKGNPEVEILRHQAAEIRWFLQAYRHN
notes: D domain, on phage
B37: SEQ ID NO: 366 (designed binder)
chain: MGSWVEFWDRLDAIEGRLWALGGSEAELAAFEKEIAAFESELQAYKGKGNPEVEDLRWLAAEIRADLQAYRHN
notes: D domain, on phage
B38: SEQ ID NO: 376 (designed binder)
chain: B37 chain with V5Y, D9G, G16E, K48R, D55M, W58E, L59D, A65G, D66Q
notes: D domain, on phage
B39: SEQ ID NO: 374 (designed binder)
chain: MGSWEEFFTRLDAINERLEALGGSEAELAAFEKEIAAFESELQAYKGKGNPEVEMLRYEAAEIRHMLQAYRHN
notes: D domain, on phage
B40: SEQ ID NO: 365 (designed binder)
chain: MGSWHEFDQRLWAIEERLWALGGSEAELAAFEKEIAAFESELQAYKGKGNPEVETLRLYAALIRHDLQAYRHN
notes: D domain, on phage
B41: SEQ ID NO: 377 (designed binder)
chain: MGSWVEFWDRLWAIDYRLFALGGSEAELAAFEKEIAAFESELQAYKGKGNPEVEALRDEAAWIREELQAYRHN
notes: D domain, on phage
B42: SEQ ID NO: 391 (designed binder)
chain: B41 chain with V5S, W8E, Y16Q, A55W, D58A, E59Y, W62D, E65W
notes: D domain, on phage
B43: SEQ ID NO: 384 (designed binder)
chain: B31 chain with E5D, W8E, D12F, T16E, V55A, N58Y, D59L, P66E
notes: D domain, on phage
B44: SEQ ID NO: 392 (designed binder)
chain: B41 chain with V5T, D9E, W12N, Y16E, A55W, D58L, E59Y, W62E, E65S
notes: D domain, on phage
B45: SEQ ID NO: 395 (designed binder)
chain: B1 chain with W5V, Y16E, H19G, M55W, S58D, E62D, A65W, L66W
notes: D domain, on phage
B46: SEQ ID NO: 378 (designed binder)
chain: B41 chain with W8V, Y16E, F19D, A55F, D58T, E59W, E66D
notes: D domain, on phage
B47: SEQ ID NO: 396 (designed binder)
chain: B2 chain with D5V, Q9E, I12E, E58D, E59D, V62N, K65H, Y66W
notes: D domain, on phage
B48: SEQ ID NO: 394 (designed binder)
chain: B1 chain with E9N, D15E, Y16E, H19E, S58N, W59Y, A65W, L66E
notes: D domain, on phage
B49: SEQ ID NO: 390 (designed binder)
chain: B41 chain with V5S, W8Y, D15E, Y16E, A55Y, D58Y, E59Y, W62E
notes: D domain, on phage

biological target: T1, recombinant human CD123-Fc; assay: phage ELISA, captured CD123-Fc
Protocol: Individual colonies containing phagemid from BCMA panning output were picked and phage were rescued in 96-well format using VCSM13 helper phage following standard protocols. To assay target binding by ELISA, 96-well plates were coated with 1.3 microg/ml goat anti-human IgG1-Fc antibody followed by incubation with 5 nM of recombinant human target (BCMA-Fc, CD123-Fc, AFP, or AFP123) or IgG1-Fc. 50 microl of rescued phage diluted 5× in ELISA blocking buffer was then added to each well. Binding was detected using an HRP-conjugated anti-M13 antibody and the ELISA ratio for each sequence is reported as the absorbance at 450 nm for target (i.e., BCMA-Fc, CD123-Fc, AFP, or AFP123) divided by that for IgG1-Fc averaged across all screened wells containing that clone.

Binder | ELISA_avg [ratio A450 target/IgG1-Fc]
B1 | 4.1
B2 | 5.9
B3 | 7.6
B4 | 7.2
B5 | 18.6
B6 | 5.3
B7 | 4
B8 | 5.1
B9 | 6.9
B10 | 14.4
B11 | 13.4
B12 | 17.5
B13 | 20.8
B14 | 16.1
B15 | 24.9
B16 | 16.1
B17 | 9.3
B18 | 15.6
B19 | 15.1
B20 | 19.3
B21 | 13.6
B22 | 13
B23 | 25.3
B24 | 17.7
B25 | 14.4

Binder | ELISA_avg [ratio A450 target/IgG1-Fc]
B26 | 15.7
B27 | 13.1
B28 | 17
B29 | 16.9
B30 | 5.8
B31 | 6.8
B32 | 4.2
B33 | 3.3
B34 | 3.6
B35 | 4.6
B36 | 3.9
B37 | 3.5
B38 | 5.4
B39 | 3.9
B40 | 3.3
B41 | 3.6
B42 | 4.2
B43 | 5
B44 | 4
B45 | 4.1
B46 | 3.2
B47 | 3.8
B48 | 5.6
B49 | 17
